# Reference: US20120040474A1 (published 2012)
# Positions count from the first letter of the chain named.
# T1: PNGase F D60A/D57A mutant (Flavobacterium meningosepticum, UniProt P21163 41-354)
# T1 sequence: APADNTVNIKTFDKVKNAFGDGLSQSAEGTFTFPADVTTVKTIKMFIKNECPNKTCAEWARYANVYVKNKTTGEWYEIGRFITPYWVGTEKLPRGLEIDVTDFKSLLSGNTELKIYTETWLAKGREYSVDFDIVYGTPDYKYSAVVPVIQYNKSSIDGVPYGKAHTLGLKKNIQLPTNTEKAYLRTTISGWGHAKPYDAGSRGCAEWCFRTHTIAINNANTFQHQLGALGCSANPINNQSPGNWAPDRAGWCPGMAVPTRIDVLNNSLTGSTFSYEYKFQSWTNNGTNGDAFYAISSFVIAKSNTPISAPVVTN
# T2: PNGase F D60A/E206Q mutant (Flavobacterium meningosepticum, UniProt P21163 41-354)
# T2 sequence: T1 sequence with A57D, E206Q
# T3: PNGase F D60A/R125A mutant (Flavobacterium meningosepticum, UniProt P21163 41-354)
# T3 sequence: T1 sequence with A57D, R125A
# T4: PNGase F D60A/E206R mutant (Flavobacterium meningosepticum, UniProt P21163 41-354)
# T4 sequence: T1 sequence with A57D, E206R
# T5: PNGase F E206A mutant (Flavobacterium meningosepticum, UniProt P21163 41-354)
# T5 sequence: T1 sequence with A57D, A60D, E206A
# T6: PNGase F D60N mutant (Flavobacterium meningosepticum, UniProt P21163 41-354)
# T6 sequence: T1 sequence with A57D, A60N
# T7: PNGase F D60A/E206K mutant (Flavobacterium meningosepticum, UniProt P21163 41-354)
# T7 sequence: T1 sequence with A57D, E206K
# T8: PNGase F D60A mutant (Flavobacterium meningosepticum, UniProt P21163 41-354)
# T8 sequence: T1 sequence with A57D
# T9: PNGase F D60A/E206A mutant (Flavobacterium meningosepticum, UniProt P21163 41-354)
# T9 sequence: T1 sequence with A57D, E206A
# B1: denatured glycoprotein RNase B (enzyme)
# chain: KETAAAKFERQHMDSSTSAASSSNYCNQMMKSRNLTKDRCKPVNTFVHESLADVQAVCSQKNVACKNGQTNCYQSYSTMSITDCRETGSSKYPNCAYKTTQANKHIIVACEGNPYVPVHFDASV
# modifications: a single N-glycosylation site predominantly occupied by high mannose oligosaccharides; protein denatured
# notes: Recognition by the PNGase F mutants and by Con A goes through the N-linked glycan on the protein; also called denatured RNase B; dRNAse B
# Key:
# Experiment in all cases: SPR, denatured RNase B
# [1] = biological target: T1, PNGase F D60A/D57A mutant
# [2] = biological target: T2, PNGase F D60A/E206Q mutant
# [3] = biological target: T3, PNGase F D60A/R125A mutant
# [4] = biological target: T4, PNGase F D60A/E206R mutant
# PNGase F E206A mutant = biological target: T5, PNGase F E206A mutant
# PNGase F D60N mutant = biological target: T6, PNGase F D60N mutant
# [5] = biological target: T7, PNGase F D60A/E206K mutant
# PNGase F D60A mutant = biological target: T8, PNGase F D60A mutant
# [6] = biological target: T9, PNGase F D60A/E206A mutant
binder,measurement,setting,value
B1,Kd,[1],7 µM
same,Kd,[2],18 µM
same,Kd,[3],18 µM
same,Kd,[4],27 µM
same,Kd,PNGase F E206A mutant,11 µM
same,Kd,PNGase F D60N mutant,21 µM
same,Kd,[5],18 µM
same,Kd,PNGase F D60A mutant,11 µM
same,Kd,[6],20 µM
